# T1: MAGE-A4 peptide on HLA-A*02:01 (human)
# T1 peptide: KVLEHVVRV
# Assays:
# [1] = target: T1, MAGE-A4 peptide on HLA-A*02:01; test: multimer staining
# [2] = target: T2, soluble HLA-A2 (…) tetramer (human); test: flow cytometry, HLA-A2 (…) tetramer staining of CHO cells transfected with the TCR
# T2 construct: Bought tetramer reagent; also called MAGE-A4/HLA tetramer reagent; HLA-A02:01 MAGE-A4 tetramer
# Experimental: Samples were then analyzed on an LSRFortessa X-20 (BD Biosciences, San Jose, Calif.).
Binder,binding result [1],"% in Ag+ gate >250 MFI, >1% [2]"
"PN41746 (TCR, V domains shown, stained with anti-mouse TCR constant region H57-597; full-length chains on transfected CHO cells; also called TCR No. 28) V domain 1: AQTVTQSQPEMSVQEAETVTLSCTYDTSESDYYLFWYKQPPSRQMILVIRQEAYKQQNATENRFSVNFQKAAKSFSLKISDSQLGDAAMYFCAYRSATGNQFYFGTGTSLTVIP V domain 2: DVKVTQSSRYLVKRTGEKVFLECVQDMDHENMFWYRQDPGLGLRLIYFSYDVKMKEKGDIPEGYSVSREKKERFSLILESASTNQTSMYLCASSLWGLNTEAFFGQGTRLTVV",recognises,90.2%
"PN41475 (TCR, V domains shown, stained with anti-mouse TCR constant region H57-597; full-length chains on transfected CHO cells; also called TCR No. 1) V domain 1: AQTVTQSQPEMSVQEAETVTLSCTYDTSESDYYLFWYKQPPSRQMILVIRQEAYKQQNATVNRFSVNFQKAAKSFSLKISDSQLGDAAMYFCAYRSATGNQFYFGTGTSLTVIP V domain 2: DVKVTQSSRYLVKRTGEKVFLECVQDMDHENMFWYRQDPGLGLRLIYFSYDVKMKEKGDIPEGYSVSREKKERFSLILESASTNQTSMYLCASSLWGSNTEAFFGQGTRLTVV",recognises,65.5%
"PN41494 (TCR, V domains shown, stained with anti-mouse TCR constant region H57-597; full-length chains on transfected CHO cells; also called TCR No. 2) V domain 1: AQTVTQSQPEMSVQEAETVTLSCTYDTSESDYYLFWYKQPPSRQMILVIRQEAYKQQNATENRFSVNFQKAAKSFSLKISDSQLGDAAMYFCAYRSATGNQFYFGTGTSLTVIP V domain 2: DVKVTQSSRYLVKRTGEKVFLECVQDMDHENMFWYRQDPGLGLRLIYFSYDVKMKEKGDIPEGYSVSREKKERFSLILESASTNQTSMYLCASSLWGWNSPLHFGNGTRLTVT",recognises,9.24%
"PN41513 (TCR, V domains shown, stained with anti-mouse TCR constant region H57-597; full-length chains on transfected CHO cells; also called TCR No. 3) V domain 1: AQTVTQSQPEMSVQEAETVTLSCTYDTSESDYYLFWYKQPPSRQMILVIRQEAYKQQNATENRFSVNFQKAAKSFSLKISDSQLGDAAMYFCAYRSAPGNQFYFGTGTSLTVIP V domain 2: DVKVTQSSRYLVKRTGEKVFLECVQDMDHENMFWYRQDPGLGLRLIYFSYDVKMKEKGDIPEGYSVSREKKERFSLILESASTNQTSMYLCASSLFATNEKLFFGSGTQLSVL",recognises,29.6%
"PN41518 (TCR, V domains shown, stained with anti-mouse TCR constant region H57-597; full-length chains on transfected CHO cells; also called TCR No. 5) V domain 1: AQTVTQSQPEMSVQEAETVTLSCTYDTSESDYYLFWYKQPPSRQMILVIRQEAYKQQNATENRFSVNFQKAAKSFSLKISDSQLGDAAMYFCAYRSAPGNQFYFGTGTSLTVIP V domain 2: DVKVTQSSRYLVKRTGEKVFLECVQDMDHENMFWYRQDPGLGLRLIYFSYDVKMKEKGDIPEGYSVSREKKERFSLILESASTNQTSMYLCASSLWATNEKLFFGSGTQLSVL",recognises,34.9%
"PN41520 (TCR, V domains shown, stained with anti-mouse TCR constant region H57-597; full-length chains on transfected CHO cells; also called TCR No. 6) V domain 1: AQTVTQSQPEMSVQEAETVTLSCTYDTSESDYYLFWYKQPPSRQMILVIRQEAYKQQNATENRFSVNFQKAAKSFSLKISDSQLGDAAMYFCAYRSARGNQFYFGTGTSLTVIP V domain 2: DVKVTQSSRYLVKRTGEKVFLECVQDMDHENMFWYRQDPGLGLRLIYFSYDVKMKEKGDIPEGYSVSREKKERFSLILESASTNQTSMYLCASSLWGVNSPLHFGNGTRLTVT",recognises,16.9%
"PN41523 (TCR, V domains shown, stained with anti-mouse TCR constant region H57-597; full-length chains on transfected CHO cells; also called TCR No. 7) V domain 1: AQTVTQSQPEMSVQEAETVTLSCTYDTSESDYYLFWYKQPPSRQMILVIRQEAYKQQNATENRFSVNFQKAAKSFSLKISDSQLGDAAMYFCAYRSAPGNQFYFGTGTSLTVIP V domain 2: DVKVTQSSRYLVKRTGEKVFLECVQDMDHENMFWYRQDPGLGLRLIYFSYDVKMKEKGDIPEGYSVSREKKERFSLILESASTNQTSMYLCASSLWGLNTEAFFGQGTRLTVV",recognises,90.5%
"PN41532 (TCR, V domains shown, stained with anti-mouse TCR constant region H57-597; full-length chains on transfected CHO cells; also called TCR No. 8) V domain 1: AQTVTQSQPEMSVQEAETVTLSCTYDTSESDYYLFWYKQPPSRQMILVIRQEAYKQQNATENRFSVNFQKAAKSFSLKISDSQLGDAAMYFCAYRSAEGNQFYFGTGTSLTVIP V domain 2: DVKVTQSSRYLVKRTGEKVFLECVQDMDHENMFWYRQDPGLGLRLIYFSYDVKMKEKGDIPEGYSVSREKKERFSLILESASTNQTSMYLCASSLWGLNTEAFFGQGTRLTVV",recognises,85.4%
"PN41559 (TCR, V domains shown, stained with anti-mouse TCR constant region H57-597; full-length chains on transfected CHO cells; also called TCR No. 12) V domain 1: AQTVTQSQPEMSVQEAETVTLSCTYDTSESDYYLFWYKQPPSRQMILVIRQEAYKQQNATENRFSVNFQKAAKSFSLKISDSQLGDAAMYFCAYRSATGNQFYFGTGTSLTVIP V domain 2: DVKVTQSSRYLVKRTGEKVFLECVQDMDHENMFWYRQDPGLGLRLIYFSYDVKMKEKGDIPEGYSVSREKKERFSLILESASTNQTSMYLCASSLWGWGTEAFFGQGTRLTVV",recognises,74.3%
"PN41565 (TCR, V domains shown, stained with anti-mouse TCR constant region H57-597; full-length chains on transfected CHO cells; also called TCR No. 13) V domain 1: AQTVTQSQPEMSVQEAETVTLSCTYDTSESDYYLFWYKQPPSRQMILVIRQEAYKQQNATENRFSVNFQKAAKSFSLKISDSQLGDAAMYFCAYRSPTGNQFYFGTGTSLTVIP V domain 2: DVKVTQSSRYLVKRTGEKVFLECVQDMDHENMFWYRQDPGLGLRLIYFSYDVKMKEKGDIPEGYSVSREKKERFSLILESASTNQTSMYLCASSLWAMNTEAFFGQGTRLTVV",recognises,4.02%
